Tests used:
[1] = system: tobacco (cv. Petit Havana); test: Postemergence glyphosate tolerance of dgt-28 transformed T1 and T2 tobacco; format: in vivo; conditions: 14 DAT, 2240 g ae/ha glyphosate (DURANGO DMA)
Source text: Postemergence herbicide tolerance in dgt-28 transformed T1 tobacco. T1 resistant plants from each event used in the progeny testing were given unique identifiers and sampled for zygosity analyses of the dgt-28 gene. Zygosity data were used to assign 2 hemizygous and 2 homozygous replicates to each rate of glyphosate applied allowing for a total of 4 replicates per treatment. These plants were compared against wildtype Petite havana tobacco. All plants were sprayed with a track sprayer set at 187 L/ha. The plants were sprayed from a range of 560-4480 g ae/ha DURANGO DMA™. All applications were formulated in water with the addition of 2% w/v ammonium sulfate (AMS). Plants were evaluated at 7 and 14 days after treatment. Plants were assigned an injury rating with respect to overall visual stunting, chlorosis, and necrosis. The T1 generation is segregating, so some variable response is expected due to difference in zygosity.
Rates of DURANGO DMA™ ranging from 420-3360 g ae/ha glyphosate were applied to 2-3 leaf tobacco as previously described.

YFP protein = test: Western blot of infiltrated tobacco leaves (YFP expression, transit peptide processing); design: species or system Nicotiana benthamiana; conditions: infiltrated tobacco leaf tissue
Experimental: Samples of the infiltrated tobacco plants were assayed via Western blotting. Leaf punches were collected and subjected to bead-milling. About 100-200 mg of leaf material was mixed with 2 BBs (steel balls) (Daisy; Rogers, Ark.) and […] of PBST for 3 minutes in a Kleco™ bead mill. The samples were then spun down in a centrifuge at 14,000×g at 4° C. The supernatant was removed and either analyzed directly via Western blot or immunoprecipitated. The immunoprecipitations were performed using the Pierce Direct IP Kit™ (Thermo Scientific; Rockford, Ill.) following the manufacturer's protocol. Approximately, 50 μg of anti-YFP was bound to the resin. The samples were incubated with the resin overnight at 4° C. Next, the samples were washed and eluted the following morning and prepped for analysis by combining equal volumes of 2×8M Urea sample buffer and then boiling the samples for 5 minutes. The boiled samples were run on a 4-12% SDS-Bis Tris gel in MOPS buffer for 40 minutes. The gel was then blotted using the Invitrogen iBlot™ (Life Technologies; Carlsbad, Calif.) following the manufacturer's protocol. The blotted membrane was blocked for 10 minutes using 5% non-fat dry milk in PBS-Tween solution. The membrane was probed with the primary antibody (monoclonal anti-GFP in rabbit) used at a 1:1000 dilution in the 5% non-fat dry milk in PBS-Tween solution for 1 hour. […]

B1: TraP8: chimeric chloroplast transit peptide SEQ ID NO:3; N-terminus from Brassica napus EPSPS CTP, C-terminus from Brassica rapa (protein)
chain: MAQSSRICHGVQNPCVIISNLSKSNQNKSPFSVSLKTHQQQRRAYQISSWGLKKSNNGSVIRPVK
modifications: TraP8 chimeric chloroplast transit peptide
notes: N-terminus from Brassica napus EPSPS CTP, C-terminus from Brassica rapa
% Injury Ave [1]: 9.3%
Processing (cleavage) of transit peptide from YFP by Western blot (YFP protein): processed

From patent US9493781B2, “Synthetic brassica-derived chloroplast transit peptides” (DOW AGROSCIENCES LLC, priority 2012, dated 2016)
